# Assay results published in patent US20120210456A1 (MENDEL BIOTECHNOLOGY, published 2012).
# T1: SALT TOLERANCE HOMOLOG2 (STH2) (Arabidopsis thaliana, UniProt Q9LQZ7 1-331, limits assumed)
# T1 construct: also called G1482
# T1 sequence: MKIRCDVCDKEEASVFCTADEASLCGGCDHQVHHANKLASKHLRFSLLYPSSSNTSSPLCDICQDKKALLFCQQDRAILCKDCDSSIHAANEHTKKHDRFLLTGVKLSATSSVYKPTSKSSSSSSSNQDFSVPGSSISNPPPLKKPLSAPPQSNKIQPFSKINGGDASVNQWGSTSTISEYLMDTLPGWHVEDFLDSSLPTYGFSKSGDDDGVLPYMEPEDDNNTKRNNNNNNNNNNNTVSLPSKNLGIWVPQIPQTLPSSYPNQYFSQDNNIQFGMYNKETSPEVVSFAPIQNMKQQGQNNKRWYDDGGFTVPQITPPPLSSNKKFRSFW
# B1: G1988 (other)
# chain: MVSFCELCGAEADLHCAADSAFLCRSCDAKFHASNFLFARHFRRVICPNCKSLTQNFVSGPLLPWPPRTTCCSESSSSSCCSSLDCVSSSELSSTTRDVNRARGRENRVNAKAVAVTVADGIFVNWCGKLGLNRDLTNAVVSYASLALAVETRPRATKRVFLAAAFWFGVKNTTTWQNLKKVEDVTGVSAGMIRAVESKLARAMTQQLRRWRVDSEEGWAENDNV
# notes: also called B-box zinc finger transcription factor G1988
# Target: T1, SALT TOLERANCE HOMOLOG2 (STH2)
# Test: in vitro and protoplast based studies (methods not described)
binder,measurement,value
B1,binding result,binds
